Data from patent EP3010938.
Numbering of substitutions follows the chain as printed.

B1: A12-H04 (antibody)
chain 1: EVQLVESGGGLVQPGRSLRLSCAASGFTFDEYGMHWVRQAPGKGLEWVSGVSWNSGSIAYADSVRGRFTISRDNAKNSLYLQMNSLRAEDTALYYCAKGRLLDVWGQGTTVTVSS
chain 2: QSALTQPASVSGSPGQSITISCTGSSSDVGGYNYVSWYQQHPGKAPKLMIYDVTKRPSGVSNRFSGSKSGNTASLTISGLQAEDEADYYGAYSNTNFYVFGTGTKVTVL
B2: A12-E05 (antibody)
chain 1: B1 chain 1 with L101I
chain 2: B1 chain 2 with A91S, S93N, T95S, N96T
B3: A12-F02 (antibody)
chain 1: B1 chain 1 with L101Y
chain 2: B1 chain 2 with A91S, S93D, N94S, T95N, N96T
B4: A12-E04 (antibody)
chain 1: B1 chain 1 with L102F
chain 2: B1 chain 2 with A91S, T95S
B5: 1Ag (antibody)
chain 1: B1 chain 1 with L101S, L102M
chain 2: QSALTQPASVSGSPGQSITISCTGSSSDVGGYNYVSWYQQHPGKAPKLMIYDVTKRPSGVSNRFSGSKSGNTASLTISGLQAEDEADYYCSSYSSSTFYVFGTGTKVTVL
B6: A12-C09 (antibody)
chain 1: B1 chain 1 with L101T, L102M
chain 2: B1 chain 2 with A91S, N94S, T95N, N96T
B7: A12-E01 (antibody)
chain 1: B1 chain 1 with G99S, L101S, L102M
chain 2: B1 chain 2 with A91S, T95N
B8: A11-C07 (antibody)
chain 1: B1 chain 1 with L101Y, L102S
chain 2: B1 chain 2 with G90A, A91S, N94S, T95N, N96T
B9: A11-G06 (antibody)
chain 1: B1 chain 1 with L102M
chain 2: B1 chain 2 with A91S, S93N, T95N, N96T
B10: 11Hg (antibody)
chain 1: QVQLVESGGGVVQPGRSLRLSCAASGFTFSSYAMHWVRQAPGKGLEWVAVISYDGSNKYYADSVKGRFTISRDNSKNTLYLQMNSLRAEDTAVYYCARGSGGRDAFDVWGQGTMITVSS
chain 2: DIQMTQSPSTLSASVGDRVTITCRASQSISSRLAWYQQKPGKAPKLLIYKASSLETGVPSRFSGSGSGTEFTLTISSLQPDDFATYYCQQTNSFPLTFGGGTKVEIK
B11: HL161-10E (antibody)
chain 1: QVQLVESGGGLVQPGGSLRLSCAASGFRFSNFAMTWVRQAPGKGLEWVSTLSGSGGSIHHADSVKGRFTISRDNSKNTLYLQMNSLRAEDTAVYYCAKGPLRGQPAYLDPWGQGTLVTVSS
chain 2: SYELTQPLSVSMSPGQTARITCSGDALSKQYASWYQLKPGQAPVVVMYKDTERPSGIPDRFSGSSSGTTVTLTISGVQAEDEADYYCQSITDKSGTDVIFGGGTKLTVL
B12: HL161-6C (antibody)
chain 1: QVQLVESGAEVKKPGASVKVSCKASGYTFTSYYMHWVRQAPGQGLEWMGIINPSGGSTSYAQKFQGRVTMTRDTSTSTVYMELSSLRSEDTAVYYCARGGGAFDIWGQGTMVTVSS
chain 2: DIQMTQSPSSVSASVGDRVTITCRASQGISNWVAWYQQKPGKAPKLLIYAASSLQSGVPSRFSGSGSGTDFTLTISSLQPEDFAIYYCQQGHSFPYTFGQGTKVEIK
B13: HL161-11H (antibody)
chain 1: B10 chain 1 with V2M, V11L, A88S, A97S
chain 2: B10 chain 2
B14: HL161-11G (antibody)
chain 1: QMQLVESGGGVVQPGRSLRLSCVGSGFNFNSYGIHWVRQAPGKGLEWVGGIFYDGSQVKYADSVKGRVSISRDNSKNTAYLQMNSLRAEDTAVYYCARRNLLDYWGQGTVVTVSS
chain 2: B5 chain 2 with Q1N, S2F, A3M, K47Q, M49I, T72S
B15: HL161-1A (antibody)
chain 1: B1 chain 1 with E1Q, E6Q, T28S, D30G, A75S, L93V, K98R, L101S, L102M
chain 2: B5 chain 2 with Q1N, S2F, A3M, S17T, K47Q, M49I, T72S

These binders were tested against T1, shFcRn (human, UniProt P55899) (assay: SPR pH 7.4).
T1 sequence (P55899 24-297, chain 1 of 2): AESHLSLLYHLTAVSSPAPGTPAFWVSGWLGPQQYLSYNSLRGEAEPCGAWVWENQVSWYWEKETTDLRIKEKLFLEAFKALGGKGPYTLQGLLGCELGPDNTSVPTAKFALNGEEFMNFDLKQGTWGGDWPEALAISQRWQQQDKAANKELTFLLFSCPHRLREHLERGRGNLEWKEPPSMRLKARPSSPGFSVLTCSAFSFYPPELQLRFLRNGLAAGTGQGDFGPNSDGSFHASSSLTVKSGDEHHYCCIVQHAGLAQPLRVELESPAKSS
T1 sequence (chain, as listed by the source, chain 2 of 2): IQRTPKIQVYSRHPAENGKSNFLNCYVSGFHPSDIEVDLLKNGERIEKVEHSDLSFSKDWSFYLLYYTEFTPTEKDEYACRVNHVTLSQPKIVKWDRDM

Binder | koff
B1 | 0.00235 s⁻¹
B2 | 0.00222 s⁻¹
B3 | 0.000225 s⁻¹
B4 | 0.00137 s⁻¹
B5 | 0.000212 s⁻¹
B6 | 0.000909 s⁻¹
B7 | 0.00115 s⁻¹
B8 | 0.00248 s⁻¹
B9 | 0.000496 s⁻¹

Each binder was assayed against T1, shFcRn (assay: SPR pH 6.0).

Binder | koff
B10 | 0.000434 s⁻¹

Biological target: T1, shFcRn
Experiment: SPR pH 6.0
Remark: another data set of the same source

Binder | koff
B1 | 0.00022 s⁻¹
B2 | 0.000216 s⁻¹
B3 | 0.000305 s⁻¹
B4 | 0.000132 s⁻¹
B5 | 0.000222 s⁻¹
B6 | 0.000177 s⁻¹
B7 | 5.99e-05 s⁻¹
B8 | 0.000393 s⁻¹
B9 | 0.000225 s⁻¹

Biological target: T1, shFcRn
Experiment: SPR pH 7.4
Remark: another data set of the same source

Binder | Kd
B11 | 26 nM
B12 | 6.6 nM
B13 | 0.9 nM

Biological target: T1, shFcRn
Experiment: SPR pH 7.4
Remark: another data set of the same source

Binder | koff
B10 | 0.000433 s⁻¹

Biological target: T1, shFcRn
Experiment: SPR pH 6.0
Remark: another data set of the same source

Binder | Kd
B11 | 3.8 nM
B12 | 1.9 nM
B14 | 0.16 nM
B13 | 0.35 nM
B15 | 0.8 nM

Biological target: T2, rat FcRn (rat, UniProt P13599)
T2 chain 1: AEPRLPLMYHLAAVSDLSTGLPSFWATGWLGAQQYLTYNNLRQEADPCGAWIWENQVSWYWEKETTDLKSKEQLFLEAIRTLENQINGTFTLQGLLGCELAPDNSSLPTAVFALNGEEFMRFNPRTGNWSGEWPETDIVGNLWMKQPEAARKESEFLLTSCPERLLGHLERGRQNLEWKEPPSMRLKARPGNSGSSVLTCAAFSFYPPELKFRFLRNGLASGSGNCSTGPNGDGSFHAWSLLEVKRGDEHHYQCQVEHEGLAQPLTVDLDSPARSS
T2 chain 2: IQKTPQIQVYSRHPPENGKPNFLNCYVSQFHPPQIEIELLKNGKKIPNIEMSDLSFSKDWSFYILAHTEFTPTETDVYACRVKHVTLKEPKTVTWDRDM
Experiment: FACS pH 7.4

Binder | binding result
B13 | no binding

Biological target: T3, mouse FcRn (mouse, UniProt Q61559)
T3 chain 1: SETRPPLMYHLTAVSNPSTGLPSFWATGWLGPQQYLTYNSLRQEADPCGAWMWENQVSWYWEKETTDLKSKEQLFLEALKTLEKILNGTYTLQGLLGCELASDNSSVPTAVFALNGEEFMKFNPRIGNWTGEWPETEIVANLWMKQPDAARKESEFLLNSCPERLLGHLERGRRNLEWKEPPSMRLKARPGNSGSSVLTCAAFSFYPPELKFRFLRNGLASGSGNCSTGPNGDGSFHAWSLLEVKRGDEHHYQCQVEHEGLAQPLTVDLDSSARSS
T3 chain 2: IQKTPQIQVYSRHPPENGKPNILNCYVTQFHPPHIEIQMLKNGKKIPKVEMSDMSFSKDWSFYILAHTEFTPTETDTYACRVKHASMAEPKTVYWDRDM
Experiment: FACS pH 6.0

Binder | binding result
B13 | no binding
